Target: T1, His-tagged recombinant GSK3β (UniProt P49841 1-420)
T1 construct: GSK3β, recombinant; source: sf9 insect cells, recombinant, purified
Assay: SPR; ProteOn XPR36; GSK3β immobilised on a GLH sensor chip; peptides in PBS with Tween 20 and 1% DMSO flowed at 100 μl/min; Langmuir model
Settings: both partners purified

T1 sequence (P49841 whole entry): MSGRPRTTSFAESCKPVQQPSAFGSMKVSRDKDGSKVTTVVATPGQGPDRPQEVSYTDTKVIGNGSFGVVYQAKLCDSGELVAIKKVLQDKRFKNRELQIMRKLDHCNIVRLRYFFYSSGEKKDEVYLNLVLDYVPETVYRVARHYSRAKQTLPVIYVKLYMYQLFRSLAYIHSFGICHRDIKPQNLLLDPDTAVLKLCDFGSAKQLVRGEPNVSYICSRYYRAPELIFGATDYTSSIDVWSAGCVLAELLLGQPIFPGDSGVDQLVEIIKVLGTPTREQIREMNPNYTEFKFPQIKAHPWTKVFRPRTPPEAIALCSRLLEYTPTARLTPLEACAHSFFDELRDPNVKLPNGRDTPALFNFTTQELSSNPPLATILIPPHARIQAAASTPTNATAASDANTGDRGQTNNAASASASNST

Kd: 11.9 µM
B1: 19-mer wild type Axin peptide (peptide)
peptide: VEPQKFAEELIHRLEAVQR
notes: Axin1, residues 383-401; source: synthetic peptide
